Consider two molecules from US20210147570A1 (Bristol-Myers Squibb, published 2021).

The EC50 is the concentration that produces a half-maximal response. A higher EC50 goes with a need for much substance.

Numbering of substitutions follows the chain as printed. Names and notes keep the numbering of the source.

For assay [1], the target named is T1, soluble CD73 in human serum/peripheral blood (human, UniProt P21589 27-549, limits assumed).
T1 construct: also called sCD73; free soluble CD73
T1 sequence (looked up): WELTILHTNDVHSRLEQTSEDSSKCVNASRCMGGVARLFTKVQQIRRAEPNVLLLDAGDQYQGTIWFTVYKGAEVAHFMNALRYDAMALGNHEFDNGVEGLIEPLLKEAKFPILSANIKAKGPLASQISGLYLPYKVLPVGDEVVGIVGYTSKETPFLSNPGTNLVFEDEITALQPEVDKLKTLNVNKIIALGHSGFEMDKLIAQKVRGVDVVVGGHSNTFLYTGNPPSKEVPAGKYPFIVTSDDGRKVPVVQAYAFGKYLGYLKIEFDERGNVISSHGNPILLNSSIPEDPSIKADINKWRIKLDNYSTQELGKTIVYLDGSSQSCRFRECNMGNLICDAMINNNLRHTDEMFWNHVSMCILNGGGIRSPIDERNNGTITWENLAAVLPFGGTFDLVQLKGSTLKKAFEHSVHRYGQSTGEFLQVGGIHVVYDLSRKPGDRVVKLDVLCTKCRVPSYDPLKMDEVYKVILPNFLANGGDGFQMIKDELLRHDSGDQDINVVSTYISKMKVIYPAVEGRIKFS
Put plainly: MSD ECL sandwich immunoassay, 6E11 as capture. The protocol:
(§1) The free sCD73 assay utilizes biotinylated anti-CD73 antibody 6E11 (SEQ ID NOs: 28 and 29) to capture drug-unbound sCD73 from the test samples (as it competes with CD73.A for binding to hCD73). MSD Streptavidin Gold assay plates were coated overnight at 2 to 8° C. with 50 μL/well of biotinylated 6E11 diluted to a final concentration of 0.5 μg/mL in 1× DPBS buffer. The following day, the wells were washed using PBS with 0.05% Tween 20 and 0.5× StabilCoat prepared in water was added to wells at 100 μL per well and incubated at room temperature for one hour. Wells were then aspirated and plates were dried and pouched with desiccant. Test samples drawn from study animals were kept frozen at −70° C. […] Bound sCD73 was subsequently detected using ruthenylated anti-CD73 antibody 4C3 (SEQ ID NOs: 38 and 39) (previously prepared with 0.1% Proclin 300 at working concentration) at a final concentration of 0.125 μg/ml in Starting Block (PBS) at 50 μL per well. The plates were incubated for one hour at 25° C. with shaking, at about 500 rpm, and then washed again before adding 1× MSD Read Buffer prepared in water and then read on MSD Sector Imager 600 by electrochemiluminescenece (ECL) technology. […] Test samples were quantified using a 4-parameter logistic fit regression model.

In assay [2] the target is T1, soluble CD73 in human serum/peripheral …. Kind of assay: free (not bound by CD73.A) sCD73 ECL immunoassay on patient samples. The protocol:
as §1

Assay [3] deals with T2, cynomolgus CD73 (in cell lines) (cynomolgus monkey, UniProt A0A2K5V5U7 27-549).
T2 construct: whole, on cells; also called Cyno CD73
T2 sequence: T1 sequence (looked up) with M199T, T350A, V466I
Put plainly: CD73 binding in cell lines (cyno), median EC50; method not stated.

B1: anti-CD73 antibody 6E11 (antibody, human IgG1, kappa, V domains shown)
VH: EVQLVESGGALVQPGRSLRLSCAASGFTFDDYAMHWVRQAPGKGLEWVSGITWNSGGIGYADSVKGRFTISRDNAKNSLYLQMNSLRAEDTALYYCAKDRYYSSWLLFDNWGQGILVTVSS
VL: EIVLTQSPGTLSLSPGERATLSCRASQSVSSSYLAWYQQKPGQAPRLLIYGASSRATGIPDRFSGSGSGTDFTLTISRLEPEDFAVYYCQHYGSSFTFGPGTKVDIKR
modifications: biotinylated (sites not given)
notes: Used as the biotinylated capture reagent on streptavidin plates; also called biotinylated 6E11
As for B1, the binding result in assay [1] is reported as “binds”.

B2: CD73.4-IgG2C219S.IgG1.1f (antibody, V domains shown)
VH: QVQLVESGGGVVQPGRSLRLSCAASGFTFSNYGMHWVRQAPGKGLEWVAVILYDGSNKYYPDSVKGRFTISRDNSKNTLYLQMNSLRAEDTAVYYCARGGSSWYPDSFDIWGQGTMVTVSS
VL: DIQMTQSPSSLSASVGDRVTITCRASQGISSWLAWYQQKPEKAPKSLIYAASSLQSGVPSRFSGSGSGTDFTLTISSLQPEDFATYYCQQYNSYPLTFGGGTKVEIKR
notes: IgG2 CH1/hinge (C219S) with IgG1.1f CH2/CH3 hybrid constant region; also called CD73.A; CD73.4-IgG2CS-IgG1.1f
As to B2, the binding result in assay [2] is on record as “binds”. The molecule also came in with an EC50 in assay [3] of 0.3 nM.
